Assay in all cases: AVEXIS screen signal:noise (double-corrected)
The target of test [1] is T1, ADP317.
T1 chain: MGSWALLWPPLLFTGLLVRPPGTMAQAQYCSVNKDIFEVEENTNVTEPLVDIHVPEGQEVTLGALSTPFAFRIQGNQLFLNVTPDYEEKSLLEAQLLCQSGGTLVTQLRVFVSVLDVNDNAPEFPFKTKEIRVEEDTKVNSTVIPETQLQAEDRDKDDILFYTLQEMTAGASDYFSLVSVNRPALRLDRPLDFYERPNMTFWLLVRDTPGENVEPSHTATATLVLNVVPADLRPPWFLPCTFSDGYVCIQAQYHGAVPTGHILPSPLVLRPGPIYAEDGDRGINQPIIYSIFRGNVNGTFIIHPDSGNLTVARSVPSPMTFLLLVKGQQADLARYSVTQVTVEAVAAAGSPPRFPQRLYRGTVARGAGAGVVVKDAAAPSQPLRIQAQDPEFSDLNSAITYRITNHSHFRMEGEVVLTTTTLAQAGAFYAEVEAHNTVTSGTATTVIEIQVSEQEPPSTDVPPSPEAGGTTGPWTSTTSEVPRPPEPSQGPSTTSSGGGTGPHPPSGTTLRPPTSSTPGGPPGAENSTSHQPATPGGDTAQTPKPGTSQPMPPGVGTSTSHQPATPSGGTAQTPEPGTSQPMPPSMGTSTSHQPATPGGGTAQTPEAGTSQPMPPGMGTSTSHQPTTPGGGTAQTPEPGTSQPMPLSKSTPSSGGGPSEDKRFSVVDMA

Test [2] concerns the target T2, ADP141.
T2 chain: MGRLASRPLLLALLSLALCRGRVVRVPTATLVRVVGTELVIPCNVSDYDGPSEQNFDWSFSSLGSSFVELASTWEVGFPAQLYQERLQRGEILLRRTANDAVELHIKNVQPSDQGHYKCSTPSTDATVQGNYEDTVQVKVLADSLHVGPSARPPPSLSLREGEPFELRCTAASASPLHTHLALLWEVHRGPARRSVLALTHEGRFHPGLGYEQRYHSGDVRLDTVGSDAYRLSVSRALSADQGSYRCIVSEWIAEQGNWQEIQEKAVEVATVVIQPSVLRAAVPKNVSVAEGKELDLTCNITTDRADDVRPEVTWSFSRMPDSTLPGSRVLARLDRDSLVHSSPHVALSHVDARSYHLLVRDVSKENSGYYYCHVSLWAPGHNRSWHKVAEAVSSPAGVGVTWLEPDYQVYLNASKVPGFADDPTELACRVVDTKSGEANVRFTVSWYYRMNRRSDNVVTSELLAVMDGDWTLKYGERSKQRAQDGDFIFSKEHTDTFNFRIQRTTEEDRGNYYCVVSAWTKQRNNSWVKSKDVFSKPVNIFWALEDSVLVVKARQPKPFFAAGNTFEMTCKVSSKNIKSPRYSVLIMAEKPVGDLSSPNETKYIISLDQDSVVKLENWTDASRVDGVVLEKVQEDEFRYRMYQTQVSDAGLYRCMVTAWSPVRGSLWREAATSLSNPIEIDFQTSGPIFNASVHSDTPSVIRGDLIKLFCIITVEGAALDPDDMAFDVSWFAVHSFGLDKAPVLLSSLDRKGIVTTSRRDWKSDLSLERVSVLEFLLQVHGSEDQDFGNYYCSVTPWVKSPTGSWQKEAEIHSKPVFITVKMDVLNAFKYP

In test [3] the target is ADP132.
The target of test [4] is ADP110.
Test [5] concerns the target ADP363.
For test [6], the target named is T3, ADP276.
T3 chain: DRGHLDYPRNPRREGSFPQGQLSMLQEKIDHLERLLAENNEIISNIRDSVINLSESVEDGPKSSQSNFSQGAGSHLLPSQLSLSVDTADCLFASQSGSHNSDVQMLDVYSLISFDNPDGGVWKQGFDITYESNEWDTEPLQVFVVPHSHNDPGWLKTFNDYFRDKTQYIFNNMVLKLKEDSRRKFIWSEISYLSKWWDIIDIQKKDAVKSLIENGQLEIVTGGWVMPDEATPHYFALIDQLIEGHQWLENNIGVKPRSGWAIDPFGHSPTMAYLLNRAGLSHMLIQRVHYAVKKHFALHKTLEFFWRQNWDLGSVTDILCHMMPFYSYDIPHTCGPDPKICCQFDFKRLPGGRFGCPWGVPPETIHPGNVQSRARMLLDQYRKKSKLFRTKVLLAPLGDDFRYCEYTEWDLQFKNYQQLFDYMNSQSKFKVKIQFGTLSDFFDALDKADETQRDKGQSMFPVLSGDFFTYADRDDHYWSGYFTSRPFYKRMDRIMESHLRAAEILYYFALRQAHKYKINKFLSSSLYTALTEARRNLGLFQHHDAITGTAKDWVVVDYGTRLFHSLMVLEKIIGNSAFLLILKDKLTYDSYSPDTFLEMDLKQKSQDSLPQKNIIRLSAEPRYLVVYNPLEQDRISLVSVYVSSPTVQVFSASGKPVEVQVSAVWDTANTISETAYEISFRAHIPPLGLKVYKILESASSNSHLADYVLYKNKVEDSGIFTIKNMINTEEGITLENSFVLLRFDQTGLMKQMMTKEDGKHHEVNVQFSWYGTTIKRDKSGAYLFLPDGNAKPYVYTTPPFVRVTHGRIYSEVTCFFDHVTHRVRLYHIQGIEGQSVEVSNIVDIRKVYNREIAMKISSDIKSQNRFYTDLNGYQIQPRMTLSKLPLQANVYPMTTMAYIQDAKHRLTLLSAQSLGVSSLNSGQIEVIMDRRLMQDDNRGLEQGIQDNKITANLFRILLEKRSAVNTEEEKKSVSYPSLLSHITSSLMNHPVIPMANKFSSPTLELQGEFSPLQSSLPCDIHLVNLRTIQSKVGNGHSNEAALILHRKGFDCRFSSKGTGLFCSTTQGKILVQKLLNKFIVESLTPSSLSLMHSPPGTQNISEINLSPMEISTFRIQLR

For test [7], the target named is T4, ADP296.
T4 chain: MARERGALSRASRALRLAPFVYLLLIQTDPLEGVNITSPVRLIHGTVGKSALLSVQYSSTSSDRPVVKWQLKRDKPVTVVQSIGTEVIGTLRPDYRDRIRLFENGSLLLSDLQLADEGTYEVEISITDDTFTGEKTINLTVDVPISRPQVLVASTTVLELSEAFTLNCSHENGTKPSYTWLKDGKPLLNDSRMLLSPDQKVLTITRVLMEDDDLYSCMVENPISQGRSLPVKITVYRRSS

The target in test [8] is T5, ADP104.
T5 chain: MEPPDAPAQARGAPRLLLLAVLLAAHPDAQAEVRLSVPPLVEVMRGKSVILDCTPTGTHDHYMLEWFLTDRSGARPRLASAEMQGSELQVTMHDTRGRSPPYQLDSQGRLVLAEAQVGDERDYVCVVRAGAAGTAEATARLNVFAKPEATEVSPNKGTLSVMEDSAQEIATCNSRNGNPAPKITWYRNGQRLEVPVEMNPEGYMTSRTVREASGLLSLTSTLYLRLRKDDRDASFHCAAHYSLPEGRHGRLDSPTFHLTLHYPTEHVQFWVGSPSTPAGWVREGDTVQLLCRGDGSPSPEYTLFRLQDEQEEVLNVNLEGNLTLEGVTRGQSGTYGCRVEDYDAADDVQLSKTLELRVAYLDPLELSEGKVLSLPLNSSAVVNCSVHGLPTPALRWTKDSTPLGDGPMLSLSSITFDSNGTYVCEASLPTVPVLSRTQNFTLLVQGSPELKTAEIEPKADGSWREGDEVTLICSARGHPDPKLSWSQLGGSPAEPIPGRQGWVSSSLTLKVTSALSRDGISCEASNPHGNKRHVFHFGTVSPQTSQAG

The record followed here is paper PMC11098746 (2024).

B1: ADP227 (protein)
chain: LKVPIENAPFVFNKKENDIKYFLDKETPDDFLSNNAYSLDITLENFPNPFFHPSLCNRYGFKFSYICDPNKILSRNIADQIEEILNYQRRNSKHFCVDKEVPYVLGVALINKLPYGISADTFASQIFEYWKLSNKDCNDGVLLFFVKEDTHFILKWKKGAQSIINFRTATSMNKAFNQYLRKYSLEYSILSAVKLTSQYLTEEIIPPTQTAQK
modifications: bait human Fc-tagged dimer; N-glycosylation sequons mutated in Plasmodium baits
As to B1, the binding score in test [1] was 5.21; in test [2] it was 6.72.

B2: ADP190 (protein)
chain: IQLHSVNYAPLNYIEIGDTLSNKVGELWHSHLNSFIDIVSTKVVNKLEDDLSNGNNLEKFMILLEDDADIFDASAYEGKNLALIQTEFIRKLKDKFKNSKFGQKLKKLGSKAKEKLLSLYQKHKGKLRHFFSILLKSLVIPIAVQFIRKNLNKWKQRTLEATQKLDEQSKNIAQPIINRLYNSFEDKIEEYSQENKINVEDELNALGQLDKDKQDIQKLEEQEKALLQ
modifications: bait human Fc-tagged dimer; N-glycosylation sequons mutated in Plasmodium baits
Regarding B2, the values for the binding score in test [3] and in test [4] were 11.3 and 11.4, respectively.

B3: ADP168 (protein)
chain: NNIKLNDKENINFESYFNKRTNEENVLNKNVAKEMGDTFVAHKAIELNINHHHVNNDKEFNNNNNNKHQPYYHNEHDKKFSESLKAHMDHLKILNNDLKQHIDKKERNEIYENNDLKKYIIKEIQNNKYLNKEKKSSEDIQILEEHSKKLQKEIHEWLESVNNIEEKSNILKNIKSQLLNNIASLNHALSEEIKNINDIKELQKQQNDLFSENWLYFLPSSSDYLLNEKKKNLYDNQDNSMKDDINNNDKYNIFNYLQNVQDKDNQYEVMKQDNNNIHSGSS
modifications: bait human Fc-tagged dimer; N-glycosylation sequons mutated in Plasmodium baits
Turning to B3, the binding score in test [5] worked out at 198; in test [6], 5.43.

B4: ADP233 (protein)
chain: SPGNDNNNVNNDGVVHVLSKNIDVKNLQGTFYEIATNAADKIFPGLACRCTKYEFSGLKRDGNLGYVLINFACARNFIFGEKKSEMTFKLILNKPLDENTATVEEFNAAIYLVQGNQQILLNGNINIIYAELNEQNEFEHLILGGQKSIEPMIIMSKYRTVLLDTYNKLINSLYLAGYEPSLLTWPFIIQTDQTFCD
modifications: bait human Fc-tagged dimer; N-glycosylation sequons mutated in Plasmodium baits
In the case of B4, the binding score in test [7] came out at 6.11; in test [2] it was 5.97; in test [8], 7.73.
